How the values were obtained:
Assay in all cases: Kinase Profiling Assay
Assay type in all cases: biochemical
Settings in all cases: 100 μM
BTK(R28H) (h) = BTK(R28H) (h) (Homo sapiens, UniProt Q06187, R28H)
Procedure, shortened: (§1)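 Kinase inhibition by MK2 inhibitory peptides was profiled radiometrically, with substrate phosphorylation from labeled ATP read by scintillation after capture on a charged filter. Values are relative to 100% activity and measured in duplicate.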

CDK2/cyclinA (h) = target: T1, CDK2/cyclinA (h) (Homo sapiens, UniProt P24941)
T1 construct: purchased Millipore
Procedure, shortened: as §1

Lck (h) activated = Lck (h) activated (Homo sapiens, UniProt P06239)
Lck (h) activated, sequence (P06239 whole entry): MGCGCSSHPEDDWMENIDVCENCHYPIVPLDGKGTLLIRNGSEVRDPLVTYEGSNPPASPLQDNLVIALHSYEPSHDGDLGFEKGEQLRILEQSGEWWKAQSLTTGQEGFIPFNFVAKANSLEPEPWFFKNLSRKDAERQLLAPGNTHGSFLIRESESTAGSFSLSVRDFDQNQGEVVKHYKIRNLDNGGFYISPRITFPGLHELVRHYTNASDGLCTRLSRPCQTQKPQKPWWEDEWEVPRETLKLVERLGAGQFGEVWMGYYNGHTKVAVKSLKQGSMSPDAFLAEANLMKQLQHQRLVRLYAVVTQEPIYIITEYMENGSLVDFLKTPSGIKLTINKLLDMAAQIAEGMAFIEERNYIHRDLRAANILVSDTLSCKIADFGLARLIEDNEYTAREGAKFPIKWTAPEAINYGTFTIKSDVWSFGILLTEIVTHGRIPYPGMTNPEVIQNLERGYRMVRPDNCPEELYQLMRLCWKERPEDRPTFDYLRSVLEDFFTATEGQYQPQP
Procedure, shortened: as §1

MLK1 (h) = target: T2, MLK1 (h) (Homo sapiens, UniProt P80192)
T2 construct: purchased Millipore
T2 sequence (P80192 whole entry): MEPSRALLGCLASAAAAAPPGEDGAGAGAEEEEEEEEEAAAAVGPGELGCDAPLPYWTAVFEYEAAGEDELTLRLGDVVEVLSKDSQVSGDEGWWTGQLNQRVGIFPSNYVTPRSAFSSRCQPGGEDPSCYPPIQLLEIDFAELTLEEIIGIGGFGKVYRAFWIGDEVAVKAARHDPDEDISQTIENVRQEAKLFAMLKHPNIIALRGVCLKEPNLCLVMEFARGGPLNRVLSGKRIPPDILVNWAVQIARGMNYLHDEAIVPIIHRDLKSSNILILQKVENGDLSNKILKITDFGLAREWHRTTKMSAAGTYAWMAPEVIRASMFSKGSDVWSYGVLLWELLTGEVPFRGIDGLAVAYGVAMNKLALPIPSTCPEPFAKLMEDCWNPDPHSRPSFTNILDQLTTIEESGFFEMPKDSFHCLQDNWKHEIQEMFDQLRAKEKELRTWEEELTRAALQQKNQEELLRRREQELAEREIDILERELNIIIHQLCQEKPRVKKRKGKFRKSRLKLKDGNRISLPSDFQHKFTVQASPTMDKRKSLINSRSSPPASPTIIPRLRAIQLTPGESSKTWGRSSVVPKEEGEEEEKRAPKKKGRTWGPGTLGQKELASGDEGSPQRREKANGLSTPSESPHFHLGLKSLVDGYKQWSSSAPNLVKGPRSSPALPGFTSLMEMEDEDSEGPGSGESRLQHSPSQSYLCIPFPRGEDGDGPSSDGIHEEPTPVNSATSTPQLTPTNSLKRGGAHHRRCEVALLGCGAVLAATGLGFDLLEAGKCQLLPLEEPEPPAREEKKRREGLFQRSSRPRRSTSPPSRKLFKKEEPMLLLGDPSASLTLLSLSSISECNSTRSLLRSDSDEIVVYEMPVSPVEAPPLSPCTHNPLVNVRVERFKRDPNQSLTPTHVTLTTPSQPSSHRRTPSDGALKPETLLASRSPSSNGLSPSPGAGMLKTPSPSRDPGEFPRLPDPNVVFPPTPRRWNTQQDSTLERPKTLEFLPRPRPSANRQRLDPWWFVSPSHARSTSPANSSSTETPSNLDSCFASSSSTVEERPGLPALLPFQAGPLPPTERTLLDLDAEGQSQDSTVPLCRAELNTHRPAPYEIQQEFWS
Procedure, shortened: as §1

SAPK2a(T106M) (h) = SAPK2a(T106M) (h) (Homo sapiens, UniProt Q16539, T106M)
SAPK2a(T106M) (h), sequence (Q16539 whole entry T106M): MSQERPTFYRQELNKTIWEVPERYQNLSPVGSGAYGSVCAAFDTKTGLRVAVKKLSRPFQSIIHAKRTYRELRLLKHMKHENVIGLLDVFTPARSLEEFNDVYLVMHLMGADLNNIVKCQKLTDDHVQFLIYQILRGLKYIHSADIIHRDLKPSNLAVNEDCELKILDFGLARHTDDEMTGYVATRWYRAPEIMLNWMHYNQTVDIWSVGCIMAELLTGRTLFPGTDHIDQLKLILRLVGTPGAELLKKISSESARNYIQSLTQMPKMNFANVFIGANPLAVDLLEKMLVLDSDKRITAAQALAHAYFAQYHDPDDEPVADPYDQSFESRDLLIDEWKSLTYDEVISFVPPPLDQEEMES
Procedure, shortened: as §1

TAO2 (h) = target: T3, TAO2 (h) (Homo sapiens, UniProt Q9UL54)
T3 sequence (Q9UL54 1-1235): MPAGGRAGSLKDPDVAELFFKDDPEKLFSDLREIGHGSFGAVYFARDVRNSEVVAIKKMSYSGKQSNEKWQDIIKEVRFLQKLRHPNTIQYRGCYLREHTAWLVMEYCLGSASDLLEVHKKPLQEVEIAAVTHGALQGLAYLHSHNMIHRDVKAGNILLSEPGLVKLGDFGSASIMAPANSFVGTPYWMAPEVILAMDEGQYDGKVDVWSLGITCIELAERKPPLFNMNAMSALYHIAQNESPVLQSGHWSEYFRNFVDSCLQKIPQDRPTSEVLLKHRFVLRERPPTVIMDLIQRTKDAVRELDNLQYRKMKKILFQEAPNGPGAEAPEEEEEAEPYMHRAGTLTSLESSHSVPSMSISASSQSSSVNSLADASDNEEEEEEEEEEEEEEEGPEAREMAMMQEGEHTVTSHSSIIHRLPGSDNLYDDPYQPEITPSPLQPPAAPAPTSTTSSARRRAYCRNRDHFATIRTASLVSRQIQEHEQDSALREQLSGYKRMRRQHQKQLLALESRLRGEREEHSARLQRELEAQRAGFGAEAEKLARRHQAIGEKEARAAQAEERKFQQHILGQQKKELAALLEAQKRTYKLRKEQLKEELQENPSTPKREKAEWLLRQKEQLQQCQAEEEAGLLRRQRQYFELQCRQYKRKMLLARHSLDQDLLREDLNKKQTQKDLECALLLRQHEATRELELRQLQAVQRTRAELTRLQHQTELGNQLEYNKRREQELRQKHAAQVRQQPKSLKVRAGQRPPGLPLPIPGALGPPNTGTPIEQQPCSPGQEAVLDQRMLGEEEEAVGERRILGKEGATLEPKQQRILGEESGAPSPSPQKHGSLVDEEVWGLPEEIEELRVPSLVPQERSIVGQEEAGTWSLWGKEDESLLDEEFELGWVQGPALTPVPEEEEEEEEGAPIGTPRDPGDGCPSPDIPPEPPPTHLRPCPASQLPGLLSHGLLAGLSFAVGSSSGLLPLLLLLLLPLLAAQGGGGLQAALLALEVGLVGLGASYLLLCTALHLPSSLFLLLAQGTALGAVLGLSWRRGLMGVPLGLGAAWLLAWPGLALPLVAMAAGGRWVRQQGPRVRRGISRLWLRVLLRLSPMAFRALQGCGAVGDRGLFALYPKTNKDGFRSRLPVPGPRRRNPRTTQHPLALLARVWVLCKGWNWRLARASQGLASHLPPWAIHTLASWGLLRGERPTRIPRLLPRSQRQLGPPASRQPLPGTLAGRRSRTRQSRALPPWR
Procedure, shortened: as §1

Tec (h) activated = target: T4, Tec (h) activated (Homo sapiens, UniProt P42680)
T4 sequence (P42680 1-631): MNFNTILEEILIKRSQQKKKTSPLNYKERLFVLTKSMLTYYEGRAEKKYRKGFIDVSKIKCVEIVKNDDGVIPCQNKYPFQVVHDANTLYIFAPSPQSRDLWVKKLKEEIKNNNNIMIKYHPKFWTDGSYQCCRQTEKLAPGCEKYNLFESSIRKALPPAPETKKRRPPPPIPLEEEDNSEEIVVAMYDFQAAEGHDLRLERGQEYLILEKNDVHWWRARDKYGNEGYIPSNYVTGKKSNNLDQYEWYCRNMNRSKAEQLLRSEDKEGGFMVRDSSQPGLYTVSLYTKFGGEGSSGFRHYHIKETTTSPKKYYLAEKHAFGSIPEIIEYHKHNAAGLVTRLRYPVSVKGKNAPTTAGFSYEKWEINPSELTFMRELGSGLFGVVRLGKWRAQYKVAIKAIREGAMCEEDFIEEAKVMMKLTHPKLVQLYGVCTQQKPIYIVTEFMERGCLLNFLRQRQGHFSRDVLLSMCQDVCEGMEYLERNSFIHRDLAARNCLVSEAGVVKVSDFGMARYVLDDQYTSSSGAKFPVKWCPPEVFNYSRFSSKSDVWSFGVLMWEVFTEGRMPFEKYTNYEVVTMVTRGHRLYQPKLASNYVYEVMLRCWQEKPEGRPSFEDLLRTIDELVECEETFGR
Procedure, shortened: as §1

BTK(R28H) (h), sequence (Q06187 whole entry R28H): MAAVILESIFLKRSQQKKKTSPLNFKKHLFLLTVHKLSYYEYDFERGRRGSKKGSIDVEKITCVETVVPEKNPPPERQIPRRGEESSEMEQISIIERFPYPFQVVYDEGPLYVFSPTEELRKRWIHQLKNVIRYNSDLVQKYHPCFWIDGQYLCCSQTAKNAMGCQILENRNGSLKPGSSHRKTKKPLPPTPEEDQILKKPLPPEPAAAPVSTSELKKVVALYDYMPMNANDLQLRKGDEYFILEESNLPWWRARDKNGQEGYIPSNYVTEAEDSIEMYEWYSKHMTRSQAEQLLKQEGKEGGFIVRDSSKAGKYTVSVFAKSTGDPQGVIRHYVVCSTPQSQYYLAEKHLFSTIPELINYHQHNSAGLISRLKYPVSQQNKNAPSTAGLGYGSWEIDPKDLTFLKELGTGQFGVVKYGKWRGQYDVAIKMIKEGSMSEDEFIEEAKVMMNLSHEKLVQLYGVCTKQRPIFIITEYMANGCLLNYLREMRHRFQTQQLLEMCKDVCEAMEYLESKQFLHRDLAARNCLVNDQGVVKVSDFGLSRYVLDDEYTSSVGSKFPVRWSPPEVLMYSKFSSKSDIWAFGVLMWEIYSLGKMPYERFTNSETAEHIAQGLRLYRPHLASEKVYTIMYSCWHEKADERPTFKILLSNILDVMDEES

## FAKLAARLYRKALARQLGVAA [MMI-0300]
BTK(R28H) (h)
  % activity: 74%
CDK2/cyclinA (h)
  % activity: 86%
Lck (h) activated
  % activity: 243%
MLK1 (h)
  % activity: 40%
SAPK2a(T106M) (h)
  % activity: 97%
TAO2 (h)
  % activity: 70%
Tec (h) activated
  % activity: 56%

## HRRIKAWLKKIKALARQLGVAA (Mammalian) [MMI-0500]
BTK(R28H) (h)
  % activity: 10%
CDK2/cyclinA (h)
  % activity: 87%
Lck (h) activated
  % activity: 76%
MLK1 (h)
  % activity: 43%
SAPK2a(T106M) (h)
  % activity: 32%
TAO2 (h)
  % activity: 15%
Tec (h) activated
  % activity: 33%

## KAFAKLAARLYRKALARQLGVAA [MMI-0400]
BTK(R28H) (h)
  % activity: 24%
CDK2/cyclinA (h)
  % activity: 92%
Lck (h) activated
  % activity: 216%
MLK1 (h)
  % activity: 33%
SAPK2a(T106M) (h)
  % activity: 99%
TAO2 (h)
  % activity: 74%
Tec (h) activated
  % activity: 29%

## YARAAARQARAKALNRQLGVA (Mammalian) [MMI-0200]
Lck (h) activated
  % activity: 90%
MLK1 (h)
  % activity: 84%
SAPK2a(T106M) (h)
  % activity: 100%
TAO2 (h)
  % activity: 93%
Tec (h) activated
  % activity: 77%

— patent US10500249B2, “Compositions and methods for preventing or treating diseases, conditions, or processes characterized by aberrant fibroblast proliferation and extracellular matrix deposition” (MOERAE MATRIX, INC., priority 2014, dated 2019)
